Reference: IntAct's records for PubMed 24105263

B1: Vesicle-associated membrane protein-associated protein A (Homo sapiens), Q9P0L0 (parent)
chain: MASASGAMAKHEQILVLDPPTDLKFKGPFTDVVTTNLKLRNPSDRKVCFKVKTTAPRRYCVRPNSGIIDPGSTVTVSVMLQPFDYDPNEKSKHKFMVQTIFAPPNTSDMEAVWKEAKPDELMDSKLRCVFEMPNENDKLNDMEPSKAVPLNASKQDGPMPKPHSVSLNDTETRKLMEECKRLQGEMMKLSEENRHLRDEGLRLRKVAHSDKPGSTSTASFRDNVTSPLPSLLVVIAAIFIGFFLGKFIL
partner: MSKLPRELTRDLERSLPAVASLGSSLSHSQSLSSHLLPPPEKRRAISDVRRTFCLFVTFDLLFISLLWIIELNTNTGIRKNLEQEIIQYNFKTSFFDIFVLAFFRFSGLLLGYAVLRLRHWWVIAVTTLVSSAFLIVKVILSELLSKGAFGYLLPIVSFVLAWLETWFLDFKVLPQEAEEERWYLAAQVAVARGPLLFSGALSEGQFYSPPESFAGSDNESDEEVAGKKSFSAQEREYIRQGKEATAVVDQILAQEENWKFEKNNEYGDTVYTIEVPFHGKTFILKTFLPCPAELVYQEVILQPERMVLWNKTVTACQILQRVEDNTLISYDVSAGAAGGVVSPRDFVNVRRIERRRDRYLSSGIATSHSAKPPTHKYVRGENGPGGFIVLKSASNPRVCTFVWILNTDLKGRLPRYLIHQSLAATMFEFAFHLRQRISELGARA
B2: Vesicle-associated membrane protein-associated protein A (Homo sapiens), Q9P0L0 (parent)
chain: B1 chain
partner: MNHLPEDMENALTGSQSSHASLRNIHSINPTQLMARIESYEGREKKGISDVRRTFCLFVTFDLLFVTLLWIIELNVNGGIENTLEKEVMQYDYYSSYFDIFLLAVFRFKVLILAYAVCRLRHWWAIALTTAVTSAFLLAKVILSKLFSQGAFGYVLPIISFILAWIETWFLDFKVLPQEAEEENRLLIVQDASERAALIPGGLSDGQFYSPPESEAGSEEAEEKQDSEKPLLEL

Variants of: B1
Details: with STARD3, Q14849-1

effect of a mutation on the interaction	Variant
decreasing interaction strength	MASASGAMAKHEQILVLDPPTDLKFKGPFTDVVTTNLKLRNPSDRKVCFKVKTTAPRRYCVRPNSGIIDPGSTVTVSVMLQPFDYDPNEKSKHDFDVQTIFAPPNTSDMEAVWKEAKPDELMDSKLRCVFEMPNENDKLNDMEPSKAVPLNASKQDGPMPKPHSVSLNDTETRKLMEECKRLQGEMMKLSEENRHLRDEGLRLRKVAHSDKPGSTSTASFRDNVTSPLPSLLVVIAAIFIGFFLGKFIL [K94D;M96D]

Variants of: B2
Details: with STARD3NL

effect of a mutation on the interaction	Variant
decreasing interaction strength	MASASGAMAKHEQILVLDPPTDLKFKGPFTDVVTTNLKLRNPSDRKVCFKVKTTAPRRYCVRPNSGIIDPGSTVTVSVMLQPFDYDPNEKSKHDFDVQTIFAPPNTSDMEAVWKEAKPDELMDSKLRCVFEMPNENDKLNDMEPSKAVPLNASKQDGPMPKPHSVSLNDTETRKLMEECKRLQGEMMKLSEENRHLRDEGLRLRKVAHSDKPGSTSTASFRDNVTSPLPSLLVVIAAIFIGFFLGKFIL [K94D;M96D]
